According to publication PMC6241527 (Science (New York, N.Y.), 2018):

Key:
[1] = biological target: T1, H1 hemagglutinin (A/Brisbane/59/07) (Influenza A virus …)
[2] = biological target: T1, H1 hemagglutinin (A/Brisbane/59/07); experiment: cell-based or functional assay
[3] = biological target: T2, influenza B hemagglutinin (B/Brisbane/60/08) (influenza B virus (B/Brisbane/60/08), N-linked glycans at N301 and N330 (HA1)); experiment: crystal structure
T2 chain 1: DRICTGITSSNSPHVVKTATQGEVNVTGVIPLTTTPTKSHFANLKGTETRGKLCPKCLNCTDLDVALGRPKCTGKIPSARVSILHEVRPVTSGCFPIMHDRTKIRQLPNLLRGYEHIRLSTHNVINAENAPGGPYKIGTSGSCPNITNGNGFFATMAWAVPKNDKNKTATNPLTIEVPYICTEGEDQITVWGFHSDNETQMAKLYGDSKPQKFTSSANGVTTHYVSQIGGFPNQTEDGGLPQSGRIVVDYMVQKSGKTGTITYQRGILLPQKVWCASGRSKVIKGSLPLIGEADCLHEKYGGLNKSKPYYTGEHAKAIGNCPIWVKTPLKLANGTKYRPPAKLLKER
T2 chain 2: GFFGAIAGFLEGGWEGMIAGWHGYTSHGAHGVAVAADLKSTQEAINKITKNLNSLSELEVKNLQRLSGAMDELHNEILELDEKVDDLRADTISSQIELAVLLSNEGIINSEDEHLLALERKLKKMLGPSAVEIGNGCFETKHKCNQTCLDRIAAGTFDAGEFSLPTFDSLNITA

[4] = biological target: T3, H1 hemagglutinin (A/Solomon Islands/3/06) (influenza A virus (A/Solomon …)); experiment: crystal structure
T3 chain 1: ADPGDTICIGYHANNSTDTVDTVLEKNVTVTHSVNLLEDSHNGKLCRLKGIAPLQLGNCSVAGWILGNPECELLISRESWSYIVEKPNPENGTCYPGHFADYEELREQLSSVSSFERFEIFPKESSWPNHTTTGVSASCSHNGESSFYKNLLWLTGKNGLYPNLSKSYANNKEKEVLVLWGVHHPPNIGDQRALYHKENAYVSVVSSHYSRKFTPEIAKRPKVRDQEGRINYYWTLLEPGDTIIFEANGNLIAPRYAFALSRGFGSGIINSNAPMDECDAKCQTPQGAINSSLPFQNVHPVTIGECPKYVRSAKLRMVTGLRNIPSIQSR
T3 chain 2: not shown

B1: single-domain antibody SD36 (VHH)
VHH: EVQLVESGGGLVQAGGSLKLSCAASGRTYAMGWFRQAPGKEREFVAHINALGTRTYYSDSVKGRFTISRDNAKNTEYLEMNNLKPEDTAVYYCTAQGQWRAAPVAVAAEYEFWGQGTQVTVSS
Kd [1]: 290 nM
in vitro neutralisation of the corresponding virus (A/Brisbane/59/07), IC50 [2]: > 1000 nM

B2: single-domain antibody SD83 (VHH)
VHH: EVQLVESGGGLVQPGGSLRLSCAATGFTLENKAIGWFRQTPGSEREGVLCISKSGSWTYYTDSMRGRFTISRDNAENTVYLQMDSLKPEDTAVYYCATTTAGGGLCWDGTTFSRLASSWGQGTQVTVSS
stoichiometry N [3]: 3 sdAbs per HA trimer

B3: single-domain antibody SD38 (VHH)
VHH: EVQLVESGGGLVQPGGSLRLSCAVSISIFDIYAMDWYRQAPGKQRDLVATSFRDGSTNYADSVKGRFTISRDNAKNTLYLQMNSLKPEDTAVYLCHVSLYRDPLGVAGGMGVYWGKGALVTVSS
stoichiometry N [4]: 3 sdAbs per HA trimer
